# B1: human targeted AGR2xCD3 BiTE (anti-AGR2 scFv clone-15 linked to anti-CD3 scFv derived from Orthoclone OKT3) (bispecific antibody, part only; not given: anti-CD3 scFv, linker, His tag, not shown: small tags and cut ends)
# chain, part: EVQLLESGGGLVQPGGSLRLSCAASGFTFSSYAMSWVRQAPGKGLEWVSGISAQGAHTTYADSVKGRFTISRDNSKNTLYLQMNSLRAEDTAVYYCAKTYKGFDYWGQGTLVTVSSGGGGSGGGGSGGGGSTDIQMTQSPSSLSASVGDRVTITCRASQSISSYLNWYQQKPGKAPKLLIYSASRLQSGVPSRFSGSGSGTDFTLTISSLQPEDFATYYCQQGRRMPPTFGQGTKVEIKEVQLLESGGGLVQPGGSLRLSCAASGFTFSSYAMSWVRQAPGKGLEWVSGISAQGAHTTYADSVKGRFTISRDNSKNTLYLQMNSLRAEDTAVYYCAKTYKGFDYWGQGTLVTVSSGGGGSGGGGSGGGGSTDIQMTQSPSSLSASVGDRVTITCRASQSISSYLNWYQQKPGKAPKLLIYSASRLQSGVPSRFSGSGSGTDFTLTISSLQPEDFATYYCQQGRRMPPTFGQGTKVEIK
# B2: anti-AGR2 scFv clone-15 (scFv)
# scFv: EVQLLESGGGLVQPGGSLRLSCAASGFTFSSYAMSWVRQAPGKGLEWVSGISAQGAHTTYADSVKGRFTISRDNSKNTLYLQMNSLRAEDTAVYYCAKTYKGFDYWGQGTLVTVSSGGGGSGGGGSGGGGSTDIQMTQSPSSLSASVGDRVTITCRASQSISSYLNWYQQKPGKAPKLLIYSASRLQSGVPSRFSGSGSGTDFTLTISSLQPEDFATYYCQQGRRMPPTFGQGTKVEIK
# notes: Found by phage display, cloned into pET22b, produced and purified in BL21(DE3) E. coli; also called AGR2-scFv-15; scFv-15
# B3: anti-AGR2 scFv clone 19 (scFv)
# scFv: EVQLLESGGGLVQPGGSLRLSCAASGFTFSSYAMSWVRQAPGKGLEWVSAIASQGVATGYADSVKGRFTISRDNSKNTLYLQMNSLRAEDTAVYYCAKLDQHFDYWGQGTLVTVSSGGGGSGGGGSGGGGSTDIQMTQSPSSLSASVGDRVTITCRASQSISSYLNWYQQKPGKAPKLLIYQASRLQSGVPSRFSGSGSGTDFTLTISSLQPEDFATYYCQQARRLPLTFGQGTKVEIK
# B4: anti-AGR2 scFv clone 26 (scFv)
# scFv: EVQLLESGGGLVQPGGSLRLSCAASGFTFSSYAMSWVRQAPGKGLEWVSSIQGQGRITRYADSVKGRFTISRDNSKNTLYLQMNSLRAEDTAVYYCAKRAIMFDYWGQGTLVTVSSGGGGSGGGGSGGGGSTDIQMTQSPSSLSASVGDRVTITCRASQSISSYLNWYQQKPGKAPKLLIYHASLLQSGVPSRFSGSGSGTDFTLTISSLQPEDFATYYCQQARYWPLTFGQGTKVEIK
# Tests used:
# [1] = target: Anterior Gradient 2 (AGR2) (UniProt O95994); assay: cell-based or functional assay
# [2] = target: T1, Anterior Gradient 2 (AGR2) (UniProt O95994 21-175, limits assumed); assay: ELISA and SPR (so in the source); the same KD in mass units
# T1 construct: In the killing assays AGR2 is the protein expressed by human Capan1 cells; also called PDIA17; Anterior gradient protein 2 homolog
# T1 sequence (looked up): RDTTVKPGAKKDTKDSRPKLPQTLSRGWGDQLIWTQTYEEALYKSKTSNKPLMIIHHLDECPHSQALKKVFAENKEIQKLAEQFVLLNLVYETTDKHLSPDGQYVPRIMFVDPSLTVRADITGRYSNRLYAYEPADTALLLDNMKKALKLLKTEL
# [3] = target: T1, Anterior Gradient 2 (AGR2); assay: cell-based or functional assay
# [4] = target: T1, Anterior Gradient 2 (AGR2); assay: ELISA and SPR (so in the source); purified scFv on AGR2
# [5] = target: T2, Anterior Gradient 2 (AGR2) (UniProt O95994 21-175); assay: BLI (Octet)
# T2 chain: T1 sequence (looked up)
# [6] = target: T3, bovine serum albumin (BSA) (bovine, UniProt P02769 25-607); assay: ELISA on coated plates (FIG. 6A)
# T3 construct: Control coating in ELISA; also called control (BSA)
# [7] = target: T2, Anterior Gradient 2 (AGR2); assay: ELISA
# T3 sequence (P02769 25-607 limits assumed): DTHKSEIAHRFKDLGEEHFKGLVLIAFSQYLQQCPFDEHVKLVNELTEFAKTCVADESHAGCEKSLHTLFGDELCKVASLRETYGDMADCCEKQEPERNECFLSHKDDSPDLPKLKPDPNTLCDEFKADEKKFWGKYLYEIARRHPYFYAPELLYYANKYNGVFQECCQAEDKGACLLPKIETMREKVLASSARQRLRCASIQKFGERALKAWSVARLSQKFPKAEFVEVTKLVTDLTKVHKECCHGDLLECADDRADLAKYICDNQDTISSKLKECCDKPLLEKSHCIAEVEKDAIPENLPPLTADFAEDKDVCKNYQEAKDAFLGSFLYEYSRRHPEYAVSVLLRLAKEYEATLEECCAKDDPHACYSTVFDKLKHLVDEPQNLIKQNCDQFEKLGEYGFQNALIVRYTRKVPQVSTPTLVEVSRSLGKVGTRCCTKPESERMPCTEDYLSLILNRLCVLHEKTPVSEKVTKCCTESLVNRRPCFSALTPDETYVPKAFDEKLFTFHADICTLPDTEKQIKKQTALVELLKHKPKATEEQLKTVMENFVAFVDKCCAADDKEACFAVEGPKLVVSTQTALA
binder,measurement,setting,value
B1,"EC50 on Capan1 cell viability, BiTE alone (no PBMCs)",[1],16.5 µM
B2,Kd,[2],4.69 mg/L
same,"EC50 in the same TDCC assay (Capan1 cells with human PBMCs), scFv alone as comparator",[3],19.8 µM
same,Kd,[4],0.179 µM
same,Kd,[5],0.00157 µM
same,binding result,[6],no binding
B3,EC50,[7],> 100 mg/L
B4,EC50,[7],> 100 mg/L

# Reference: patent US20240085427A1 (published 2024)
